Source: patent publication US8173600 (CHIESI FARMACEUTICI S P A, dated 2012)
Numbered stars: 1 amine (or outer) side, 2 acyl side, 3 side chain; on linkers, the order of the positions; unused ones are H or OH. Square brackets hold non-standard residues; d marks the D form. * marks the point of attachment. 2,6‑difluorophenyl ester = C-terminal 2,6-difluorophenyl ester (dfp), Fc1cccc(F)c1O*; Asp(OMe) = aspartyl methyl ester, COC(=O)C[C@H](N[*:1])C(=O)[*:2]; Quinaldoyl = O=C(c1ccc2ccccc2n1)*

Biological target: T1, human recombinant caspase-2 (human, UniProt P42575 170-452, limits assumed)
T1 sequence (looked up): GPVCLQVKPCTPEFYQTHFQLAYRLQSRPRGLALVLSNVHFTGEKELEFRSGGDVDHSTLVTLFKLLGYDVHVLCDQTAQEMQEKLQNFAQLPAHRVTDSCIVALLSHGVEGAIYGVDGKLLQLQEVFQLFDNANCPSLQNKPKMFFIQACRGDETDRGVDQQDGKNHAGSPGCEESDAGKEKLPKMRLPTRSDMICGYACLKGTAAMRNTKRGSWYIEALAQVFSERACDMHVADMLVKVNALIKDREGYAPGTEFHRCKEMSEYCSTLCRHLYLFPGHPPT
Assay: cell-based or functional assay

B1: 2-Quinolinylcarbonyl-L-Valinyl-L-Aspartyl (methyl ester)-L-Valinyl-L-Alanyl-L-Aspartyl (methyl ester) 2,6-difluorophenyl ester (peptide)
peptide: Quinaldoyl-V[Asp(OMe)]VA[Asp(OMe)]-{2,6‑difluorophenyl ester}
SMILES: COC(=O)C[C@H](NC(=O)[C@@H](NC(=O)c1ccc2ccccc2n1)C(C)C)C(=O)N[C@H](C(=O)N[C@@H](C)C(=O)N[C@@H](CC(=O)OC)C(=O)Oc1c(F)cccc1F)C(C)C
IC50 (in vitro inhibition of human recombinant caspase-2): 80 nM
